Experiments:
[1] = format: biochemical; conditions: PNθP as substrate
[2] = test system: ElALuc, pGL3-Luc and Gal4-TATA-Luc constructs; experiment: Luciferase reporter assay, basal promoter activity; format: cell-based, human; conditions: cotransfected
Text: (§1) Gal4-DNA binding domain-SCP1 fusion protein expression plasmids-were cotransfected in HEK293 cells with a Gal 4-TKLuc reporter plasmid and luciferase gene expression quantitated. In all panels, results of triplicate transfections are shown +/− SD. Data is expressed as fold-activation experimental/control). […] The indicated amounts of SCP1 or mutant SCP1 expression plasmids were cotransfected in HEK293 cells along with Gal 4-VP16 expression and Gal 4-TK-Luc reporter plasmids and luciferase activity was quantitated. […] The indicated receptor expression plasmids were cotransfected with their cognate promoter-reporter plasmids with or without SCP1 or mutant SCP1 expression plasmids. Cells were treated or untreated with receptor-specific ligands as described infra. […] The indicated concentrations of SCP1 and mutant SCP1 expression plasmids were cotransfected with LMX1 and E47 expression plasmids and the rat insulin 1 promoter-luciferase reporter gene. Luciferase activity was measured as described.
(§2) Tissue Culture and Transfections: Human 293, COS7 and CV1 cells were grown at 37° C. in DMEM supplemented with 10% normal calf serum (BRL). Sub-confluent cells were transfected in 6 well tissue culture dishes using Effectene (Qiagen) according to the manufacturer's instructions. Reporter and activator plasmids (100 ng each) and Flag SCP1 (80 ng) or its mutant were used per well. […]

[3] = test system: Gal 4-TK-Luc reporter stimulated by Gal 4-VP16; experiment: Luciferase reporter assay, Gal 4-VP16 stimulated gene expression; format: cell-based, human; conditions: HEK293 cells
Text: as §1, §2

[4] = test system: PPARγ receptor activity on PPARγ promoter response element; experiment: Luciferase reporter assay, ligand-activated PPARγ receptor; format: cell-based, human
Text: as §1, §2

[5] = test system: rat insulin 1 promoter-luciferase reporter gene; experiment: Rat insulin promoter-luciferase assay with LMX1 and E47; format: cell-based; conditions: LMX1 and E47 co-expressed
Text: as §1, §2

[6] = test system: P19 mouse embryonic stem cells; experiment: Neuronal differentiation of P19 cells; format: cell-based; conditions: clonal P19 line, retinoic acid, selective medium
Protocol: P19 cells, C, differentiated GFP expressing P19 cells; D, differentiated SCP1-expressing P19 cells; F, differentiated REST/NRSF-expressing P19 cells. Numbers of NLC per field are shown. *p=0.001 compared to WT 19 cells; **p=0.008 compared to WT P19 cell using student's t-test.
P19 stably expressing REST/NRSF.
These cell lines were maintained in α-MEM/10%FBS with […] G418. To induce neuronal differentiation, P19 cells were allowed to aggregate in bacterial grade petri-dishes (Fisher) at a seeding density of 1×10^5cells/ml in the presence of 1×10^−6M all-trans retinoic acid. After 3 days of aggregation, cells were dissociated into single cells by 0.05% trypsin-0.53 mM EDTA (Gibco). Trypsin was removed by centrifugation and the cells were plated in 6 cm tissue culture dishes (Nunc). at a density of 1×10^5 cells/cm^2 in Neurobasal medium/N2 supplement (Invitrogen) in the presence or absence of 1 μg/ml fibronectin (Invitrogen). The cells were cultured for 5 days after which average cell numbers/field were determined. Cells were either lysed to prepare total RNA (Rneasy kit, Qiagen) or stained with TuJ1 antibody (Babco).
For immunostaining, cells were fixed for 10 mins with 4% paraformaldehyde. TuJ1 antibody was used at 1:2000 and secondary antibody used was FITC-conjuagated anti-mouse (1:3000).

B1: SCP1: small CTD phosphatase-1, full-length 261 aa human protein, SEQ ID NO:2 (protein, listed as Homo sapiens)
chain: MDSSAVITQISKEEARGPLRGKGDQKSAASQKPRSRGILHSLFCCVCRDDGEALPAHSGAPLLVEENGAIPKTPVQYLLPEAKAQDSDKICVVIDLDETLVHSSFKPVNNADFIIPVEIDGVVHQVYVLKRPHVDEFLQRMGELFECVLFTASLAKYADPVADLLDKWGAFRARLFRESCVFHRGNYVKDLSRLGRDLRRVLILDNSPASYVFHPDNAVPVASWFDNMSDTELHDLLPFFEQLSRVDDVYSVLRQPRPGS
In the case of B1, the “pH optimum for SCP1 phosphatase activity” value ([1]; GST-fusion) is reported as ~5, the “divalent metal ion requirement of phosphatase activity” value ([1]; Ca2+ could not substitute) is reported as “Mg^2+-dependent” and the “reporter gene expression from basal promoter constructs” value [2] is reported as “no significant effect”. The “Gal 4-VP16 stimulated luciferase activity” value [3] was “strongly inhibited”, the “ligand-activated PPARγ receptor activity” value [4] was “inhibited” and the “inhibition of luciferase expression” value ([5]; 40 ng SCP1 plasmid alone) was > 90%. For the same molecule, the “inhibition of luciferase expression” value ([5]; 40 ng SCP1 plasmid plus 20 ng mutant SCP1 plasmid) was ~20% and the “effect on neuronal differentiation” value [6] was “did not affect the extent of neuronal differentiation”.
